Data on 1 molecule can be found in patent US20100311669A1.

Positions of bridges follow the written chain, without caps; N, C: chain ends. No end group written: not given here.

The assay deals with Recombinant purified HER2 receptor composed of the ectodomain of HER2 fused to the Fc of human IgG (human) (UniProt P04626). The experiment in a line: SPR (Biacore 3000), HER2-Fc immobilized, peptide as analyte, 25 C. (Surface plasmon resonance follows binding to a sensor surface in real time, without labels.)

B1: AHNP analogue 8, …-OH (cyclic) (peptide)
peptide: FCGDGFYACYMDV-OH
modifications: disulfide 2-9
As to B1, the Kd amounted to 760 nM, the koff was 0.000701 s⁻¹ and the on-rate (kon) was found to be 922 M⁻¹ s⁻¹.

One may read the Kd as a measure of binding affinity in units of concentration. Broadly, the koff is the rate constant with which the complex falls apart. A word on the kon: it is a measure of how fast the partners come together.
